Laboratory results: paper PMC7398557 (Nature, 2020)

Target: the molecule itself
Assay: cryo-EM structure

B1: human acyl-CoA:diacylglycerol acyltransferase 1 (DGAT1) (enzyme)
chain: MGDRGSSRRRRTGSRPSSHGGGGPAAAEEEVRDAAAGPDVGAAGDAPAPAPNKDGDAGVGSGHWELRCHRLQDSLFSSDSGFSNYRGILNWCVVMLILSNARLFLENLIKYGILVDPIQVVSLFLKDPYSWPAPCLVIAANVFAVAAFQVEKRLAVGALTEQAGLLLHVANLATILCFPAAVVLLVESITPVGSLLALMAHTILFLKLFSYRDVNSWCRRARAKAASAGKKASSAAAPHTVSYPDNLTYRDLYYFLFAPTLCYELNFPRSPRIRKRFLLRRILEMLFFTQLQVGLIQQWMVPTIQNSMKPFKDMDYSRIIERLLKLAVPNHLIWLIFFYWLFHSCLNAVAELMQFGDREFYRDWWNSESVTYFWQNWNIPVHKWCIRHFYKPMLRRGSSKWMARTGVFLASAFFHEYLVSVPLRMFRLWAFTGMMAQIPLAWFVGRFFQGNYGNAAVWLSLIIGQPIAVLMYVHDYYVLNYEAPAAEA
stoichiometry N: 2
